Test results published in US20080014203A1 (published 2008).
Positions count from the first letter of the chain named. Values belong to the molecule of their own block, whether it stands above or below them.

What was measured:
[1] = target: IGF-I receptor (IGF-IR) on tumor cells (HT29, NCI H322M) or on 3T3 cells transfected with IGF-IR (human) (UniProt P08069); assay: cell-based or functional assay
[2] = target: T1, IGF-I receptor (IGF-IR) on tumor cells (HT29, NCI H322M) or on 3T3 cells transfected with IGF-IR (human, UniProt P08069 31-736; P08069 741-1367, Natural receptor on cells: glycosylated, disulfide-linked alpha2-beta2 heterotetramer. One alpha and one beta chain are given.); assay: displacement of I^125-labeled IGF-I from human tumor cells expressing IGF-IR (HT29, NCI H322M), scintillation counting
T1 construct: also called IGF-1R

[3] = target: T2, IGF-IR extracellular domain (human, UniProt P08069 31-935); assay: SPR (BIACORE 3000); antibody captured by anti-human Fcγ antibody, IGF-IR extracellular domain in solution
T2 construct: extracellular domain; also called IGF-1R; insulin-like growth factor I receptor

- Akt/PKB phosphorylation without IGF-I ligand (Western blot) [1]: > 5 nM
Molecule: αIR3 (antibody)

- IC50 [2]: 0.3 nM
- Kd [3]: 0.000695 nM
- koff [3]: 1.03e-07 s⁻¹
- kon [3]: 149000 M⁻¹ s⁻¹
B1: <IGF-1R>HUMAB Clone 18 (antibody 18) (antibody, V domains shown)
VH: QVELVESGGGVVQPGRSQRLSCAASGFTFSSYGMHWVRQAPGKGLEWVAIIWFDGSSTYYADSVRGRFTISRDNSKNTLYLQMNSLRAEDTAVYFCARELGRRYFDLWGRGTLVSVSS
VL: EIVLTQSPATLSLSPGERATLSCRASQSVSSYLAWYQQKPGQAPRLLIYDASKRATGIPARFSGSGSGTDFTLTISSLEPEDFAVYYCQQRSKWPPWTFGQGTKVESK

- Kd [3]: 0.656 nM
- koff [3]: 9.64e-05 s⁻¹
- kon [3]: 147000 M⁻¹ s⁻¹
B2: <IGF-1R>HUMAB Clone 22 (antibody 22) (antibody, V domains shown)
VH: VQLVESGGGVVQPGRSLRLSCAASGFTFSSYGMHWVRQAPGKGLEWMAIIWFDGSSKYYGDSVKGRFTISRDNSKNTLYLQMNSLRADDTAVYYCARELGRRYFDLWGRGTLVTVSS
VL: B1 VL with K53N, S107I
